Assay: yeast display, Sf9 membrane polyspecificity reagent, FACS + sequencing; frameworks hold sequencing errors
In short: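 Polyreactivity labels are assigned by the sorting gate from which each nanobody was recovered. The gates were low and high (top ~1%), set on anti-HA fluorescence for expression and streptavidin fluorescence for reagent binding. Before sorting, galactose-induced (36–48 hours) yeast display cells were stained for 1 hour at 4 °C with 10% biotinylated, detergent-solubilized Sf9 membrane reagent.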
With “QVQRVDSGGGIVQAGGSLRLSCADSGSIFNRYAMGWYRQAPGKERELFAAISSSSGSTYYADSVKGRFTISRDNSKNTVYLQMNSLKPEDTAVYYCATRRKVVPTQVGYYYRGGVDYWGQGTQVTVSS” the “polyreactivity (PSR sort gate)” value was “high polyreactivity”.
For “QVQRVDSGGGLVQAGGSLRLSCAASGSTFPGYAMGWYRQAPGKERELVAAISKRGGSTRYADSVKGRFTISRDNAKNTVYLQMNSLKPEDTAVYYCAASYSYSGSGGGYWGQVTQVTVSS”, the “polyreactivity (PSR sort gate)” value was “high polyreactivity”.
With “QVQRVESGGDLVQAGGSLRLSCAASGFIYTYYAMGWYRLAPGKERDFVATINWSDGSTRYADSVKGRFTISRDNAKNTVYLQMNSLKPEDTAVYYCAKDWFNRPSGEMDYCGQGTQVTVSS” the “polyreactivity (PSR sort gate)” value was “low polyreactivity”.
With “QVQRVESGGGLGQAGGSLRLSCAASGIIFDYYAMGWYRQAPGNERELVAAITTSGGRTYYADSVKGRFTISRDNEKNTVYLQMNRLKPEDTAVYYCAASRPSPRPRDGYWGQGTQVTVSS” the “polyreactivity (PSR sort gate)” value was “high polyreactivity”.
In the case of “QVQRVESGGGLVLAGGSLRLSSAASGITFVRYAMGGYRQAPVKERELVAVISRGGITNYADSVMGRFTISRDNAKNTVYLQMNSLKPEDTAVYYCAVRARSYVRTYDYWGQGTQVTVSS”, the “polyreactivity (PSR sort gate)” value is reported as “high polyreactivity”.
In the case of “QVQRVESGGGLVQAGCSLRLSCAATGSTFRDYTMGGYRQEPGKERELVADITWRSGRTYYADSVMGRFTISRDYAMNTVYLQMNSLKPEDTAVYYCAAATRVKVNGLYSYYYRYDYWGLGTQVTVSS”, the “polyreactivity (PSR sort gate)” value is reported as “high polyreactivity”.
For “QVQRVESGGGLVQAGGRLLLSCAASGSIFPPNAMGWYREAPGKERELVAAISGSGRTYYADSVKGRFTISRDNAKNTVYLQMNSLKPEDTAVYYCAARQQRRPTTRDFGFWGQGTQVTVSS”, the “polyreactivity (PSR sort gate)” value was “high polyreactivity”.
For “QVQRVESGGGLVQAGGRLRLSCAASGRIFIYYAMGWYRQAPGKERELVAAISSSGASTYYADSVKGRFTISRDNAKNTVYLQMISLKPEDTAVYYCAALYYRGGAFPLDYWGQGTQVTVSS”, the “polyreactivity (PSR sort gate)” value was “low polyreactivity”.
In the case of “QVQRVESGGGLVQAGGRLRLSCAASGSTFRQYAMGWYRQAPGKERELVAAITGGGGSTYYADSVKGRFTISRDNAKNTVYLQMNSLKPEDTAVYYCNAVHRYERDYWGQGTQVTVSS”, the “polyreactivity (PSR sort gate)” value is reported as “high polyreactivity”.
For “QVQRVESGGGLVQAGGSLGLSCAATGSTFTVYAMGWYRQATGTERELVASITFTGGSTYYADSVKGRFTISRDNAKNTVYLQMISLKPEVTEVYYCAAYGWRVHDRWFFERDYWGQGTQVTVSS”, the “polyreactivity (PSR sort gate)” value was “high polyreactivity”.
For “QVQRVESGGGLVQAGGSLRLSCAAAGLTFYGYAMGWYRQAPGKERELVAAITRSGGSTYYADSVKGRFTISRDNAKNTVYLQMNSLKPEDTAVYYCAAEEEYLYQSNRLHPYDYWGQGTQVTVSS”, the “polyreactivity (PSR sort gate)” value was “low polyreactivity”.
In the case of “QVQRVESGGGLVQAGGSLRLSCAASGANFSRYAMGWYRPAPGKERELVAAITSGGSTNYADSVKGRFTISRDNAKNTVYLQMTSLKPEDTAVYYCNKRYVVYPGNYWRYDYWGQGTQVTVSS”, the “polyreactivity (PSR sort gate)” value is reported as “high polyreactivity”.
With “QVQRVESGGGLVQAGGSLRLSCAASGFIFKDNAMGWYRQARGKERELVAVISGTGGRTNSADSVKGRFTISRDNAKNTVYLQMNSLKPEDTAVYYCAAEGYYTSTYDLYDYYYWGQGTQVTVSS” the “polyreactivity (PSR sort gate)” value was “low polyreactivity”.
For “QVQRVESGGGLVQAGGSLRLSCAASGFIFRRYAMGWYRQAPGKERELVASISSGGNTNYADSVKGRFTISRDNAKNTVYLQMNSLKPEDTAVYYCNDEYRWIAYGYWGQGTQVTVSS”, the “polyreactivity (PSR sort gate)” value was “high polyreactivity”.
In the case of “QVQRVESGGGLVQAGGSLRLSCAASGFIFYDYMGWYRQAPGKERVLVAVISYSGSSTYYADSVKGRFTISRDNAKNTVYLQMNSLKPEDNAVYYCAARKVNGWDYDYWGQGTQVTVSS”, the “polyreactivity (PSR sort gate)” value is reported as “low polyreactivity”.
For “QVQRVESGGGLVQAGGSLRLSCAASGFIFYGNTMGWYREAPGKERELVASITSGSSTHYAYSVKGRFTISRDNAKNTVYLQMNSLKPEDTAVYYCIVDDIQFGKYDYWGQGTQVTVSS”, the “polyreactivity (PSR sort gate)” value was “low polyreactivity”.
With “QVQRVESGGGLVQAGGSLRLSCAASGIIFDSYAMGWYRQAPGKERELVAAITSDSGRTYYADSVKGRFTISRDNAKNTVYLQMNSLKPEDTAVYYCAKGWDGTYDYWGQGTQVTVSS” the “polyreactivity (PSR sort gate)” value was “low polyreactivity”.
For “QVQRVESGGGLVQAGGSLRLSCAASGRIFSNYAMGWYRQAPGKEREFVAAISGSGGSTYYADSVKGRFTISRDNAKNTVYLQMNSLKPEDTAVYYCSTSGPQYYSRNFDYWGQGTQVTVSS”, the “polyreactivity (PSR sort gate)” value was “low polyreactivity”.
For “QVQRVESGGGLVQAGGSLRLSCAASGRIFSWYTMGWYRQAPGKERELVAVITSGGTTKYADSVKGRFTISRDNAKNTVYLQMNSLKPEDTAVYYCNVAGRDYAVRWGSFDYWGQGTQVTVSS”, the “polyreactivity (PSR sort gate)” value was “low polyreactivity”.
For “QVQRVESGGGLVQAGGSLRLSCAASGRIFVRNVMGWYRQAPGKEREFVAAITTRGGSTYYADSVKGRFTISRDNAKNTVYLQMNSLKPEDTAVYYCAARYTLRLYWGQGTQVTVSS”, the “polyreactivity (PSR sort gate)” value was “high polyreactivity”.
In the case of “QVQRVESGGGLVQAGGSLRLSCAASGRIFYPNAMGWYRQAPGTEREWVAGITRGGSTNYADSVKGRFTISRDNAKNTVYLQMNSLKPDDSAVDYCAKAIPAKIYSEAGSDYWGQGTQVTVSS”, the “polyreactivity (PSR sort gate)” value is reported as “low polyreactivity”.
With “QVQRVESGGGLVQAGGSLRLSCAASGRILGKYAMGRYIQAPGKEREVVAAIRLRGGSTYYADSVKGRFTISRDNAKNTVYLQMNSLKPEDTAVYYCAATYWDRSQAYNYWGQGTQVTVSY” the “polyreactivity (PSR sort gate)” value was “high polyreactivity”.
For “QVQRVESGGGLVQAGGSLRLSCAASGRTFAGYAMGWYRQAPGKERELVAAITTGGSTKYADSVKGRLTISRDNAKNTVFLQRTSLKPEDTAVYYCNARKRVYSGNTLMYYWGQGTQVTVSS”, the “polyreactivity (PSR sort gate)” value was “high polyreactivity”.
For “QVQRVESGGGLVQAGGSLRLSCAASGRTFLQYAMGWYSQAPGKVREFVAAINWSGGSTYYAASVKRRFTISRDNAKNTVYLPMHSLKPEDTAVYYCAARRVYLGEYDYWGQGTQVTVSS”, the “polyreactivity (PSR sort gate)” value was “high polyreactivity”.
With “QVQRVESGGGLVQAGGSLRLSCAASGRTFRYYAMGWYRQAPGKERELVAAITSGGSTSYADSVKGRFTISRDNAKNTVYLQMNSLKPEDTAVYYCAAVPAGLWATYPQFRYGYWGQGTQVTVSS” the “polyreactivity (PSR sort gate)” value was “high polyreactivity”.
With “QVQRVESGGGLVQAGGSLRLSCAASGRTFSKNAMGRTRQAPGQETELVAAISGSGGSTYYADSVKGRFTISRDNAKNTVYLQMNSLKPEDTAVYYCADRYTVRRSGYWGQGTQVTVSS” the “polyreactivity (PSR sort gate)” value was “high polyreactivity”.
With “QVQRVESGGGLVQAGGSLRLSCAASGRTFYPYLMGWYRQSPGKERELVARIRWSGSSTYYADSVKGRFTISRDNAKNTVYFQMNSLKPEDTAVYYCNARPSWYVFGSSVHSGMGYWGQGTQVTVSS” the “polyreactivity (PSR sort gate)” value was “high polyreactivity”.
For “QVQRVESGGGLVQAGGSLRLSCAASGSIFFDGNAMGWYRQAPGQERELVAAISVSGGSTYYADSVKGRFTISRDNAKNTVYLQMNSLKPEDTAVYYCAKYPSKSYVPGDYWGQGTQVTVSS”, the “polyreactivity (PSR sort gate)” value was “low polyreactivity”.
In the case of “QVQRVESGGGLVQAGGSLRLSCAASGSIFGPNAMGWYRQAPGKERELVAAITLSGGSTYYADSVKGRFTISRDNAKNTVYLQMNSLKPEDTAVYYCAAEYYQTTYVWWTYDYYWGQGTQVTVSS”, the “polyreactivity (PSR sort gate)” value is reported as “low polyreactivity”.
In the case of “QVQRVESGGGLVQAGGSLRLSCAASGSIFLSYDMGWYRQAPGKERELVAAITQSGGSTYYADSVKGRFTISRDNAKNTVYLQMNSLKPQDTAVYSCAVRVSGPRGYDYEYWGQGTQVTVSS”, the “polyreactivity (PSR sort gate)” value is reported as “low polyreactivity”.
For “QVQRVESGGGLVQAGGSLRLSCAASGSIFSSNVMGWYRQAPGKEREIVAAITTGGSTNYADSVKGRFTISRDNAKNTVYLQMYCLKREDTAFYYCSFSYGYYLFVDWGYGCWGQGSQVTVSS”, the “polyreactivity (PSR sort gate)” value was “low polyreactivity”.
With “QVQRVESGGGLVQAGGSLRLSCAASGSIFYQYAMGWYRQAPGKEREVVAAITIGGSTNYADSVKGRFTISRDNAKNTVYLQMNSLKPEDTAVYYCNADKNWYGHEYDYWGQGTQVTVSS” the “polyreactivity (PSR sort gate)” value was “low polyreactivity”.
For “QVQRVESGGGLVQAGGSLRLSCAASGSIIAGYPMGWSRQAPGKERELVAGIRRGGSTNYADSVKGRFTISRDNAKKTVYLQMNSLKPEDTAVYYCNAQRTRSYVLRTFDYWGQGTQVTVSS”, the “polyreactivity (PSR sort gate)” value was “high polyreactivity”.
With “QVQRVESGGGLVQAGGSLRLSCAASGSIIQPYARGWYRQSPGKERELVAAIRSSTGSTYYADSVKGRFTISRDIAKNTVYLQQNSLKPEDSAVYYCARRRWSYVRGYSSGMYYWGQGTQVTVSS” the “polyreactivity (PSR sort gate)” value was “high polyreactivity”.
With “QVQRVESGGGLVQAGGSLRLSCAASGSTFPRNAMGWYRQAPGKEREFVAAISYSGGRTYYADSVKGRFTISRDNAKNTVYLQMNSLKPEDTAVYYCAAQPYSHVRGKSYGYWGQGTQVTVSS” the “polyreactivity (PSR sort gate)” value was “high polyreactivity”.
In the case of “QVQRVESGGGLVQAGGSLRLSCAASGSTLYGYALGWYRQAPGKERELVAAISVSGGRTYYADSVKGRFTISRDNAKNTVYLQMNSLKPEDTAVYYCAADGLSPYSGDYWGQGTQVTVSS”, the “polyreactivity (PSR sort gate)” value is reported as “high polyreactivity”.
In the case of “QVQRVESGGGLVQAGGSLRLSCAGTGSIFTSNAMRWYRQARGNERELVASISYISGGTYYADSVKGRFTISRDNAKNTVYLQMNSLKPEDTAVYYCAAEQTWGSCQYDPRTYDYWGQGNQVTVSS”, the “polyreactivity (PSR sort gate)” value is reported as “low polyreactivity”.
In the case of “QVQRVESGGGLVQAGGSLRLSSPASGRMGWYRQAPGKERELVAAITSGDRTNYADSVKGRFTISRDNAKNTVYLQMNSLKPEDTAVYYCATERSWYHGFIDPRGYWGQGTQVTVSS”, the “polyreactivity (PSR sort gate)” value is reported as “low polyreactivity”.
For “QVQRVESGGGLVQAGGSLRLTCAPSGFIFYYYAMGWYRQAPGKEMQLVAAIDSGGSTYADSVNGRFTISRDNAKNTVYLQMTSLKPEDTAVYYCAADYYLPWYPDYDYWGQGTQVTVSS”, the “polyreactivity (PSR sort gate)” value was “low polyreactivity”.
In the case of “QVQRVESGGGLVQARGSLRLSCAASGRIFTKYAMGWYRQAPGKVRELVAGITSRGGSTYYADSVKGRFTISRDIANNTGYLQMNSLKPEDTAVYYCNAYRVGRYDYWGQGTQVTVSS”, the “polyreactivity (PSR sort gate)” value is reported as “high polyreactivity”.
With “QVQRVESGRGLFHAGGSLRLSCAASGSIFIWNDMGWYRQAPGKERELVAAITISAGSTSYADSVKGRFTISRDNAKNTVYLQMKSLKPEDTAVYYCAAASWLGAYGYEYDYWGQGTQVTVSS” the “polyreactivity (PSR sort gate)” value was “low polyreactivity”.
For “QVQRVESRGGLVQAGGTLRLSCAASGSTFGVNAKGCYSQAPGKDRELVATISRGTSTNYADSVKGRFTISRDNAKNTVYLQMNSLKPEDTAVYYCAKRVFYPGAYRYYYCGQGTQVTVSS”, the “polyreactivity (PSR sort gate)” value was “high polyreactivity”.
For “QVQVLESGGGLFQAGGRLRLSCAASGRTFRSYAMGWYRQAPGKERELVAAIRRGGSTNYADSVKGRFTISRDNAKNTVYLQMNSEKPEDTAVYYCAARGWSYRSVGYMDYWGQGTQVTVSS”, the “polyreactivity (PSR sort gate)” value was “high polyreactivity”.

Reference: the nanobody polyreactivity screen of Harvey et al. (2022)
